# Reference: US20210032299A1 (Eli Lilly, published 2021)
# Starred links: 1 amine or outer side, 2 acyl side, 3 side chain; linkers in the order of their positions; H or OH if unused. Non-standard residues stand in square brackets, D forms with d. Groups on a side chain read outwards from the residue. No end group written: not given here. *: point of attachment. C20 diacid = O=C(O)CCCCCCCCCCCCCCCCCCC(=O)*; γGlu = O=C(O)[C@H](CCC(=O)[*:2])N[*:1]; αMeY = C[C@](N)(Cc1ccc(O)cc1)C(=O)O; 4Pal = N[C@@H](Cc1ccncc1)C(=O)O; αMeL = CC(C)C[C@](C)(N)C(=O)O; AEEA = NCCOCCOCC(=O)O; Aib = CC(C)(N)C(=O)O
# T1: human glucose-dependent insulinotropic polypeptide (GIP) receptor (human, UniProt P48546 22-466)
# T1 construct: whole, on cells; Assayed as crude membranes of stably transfected CHO cells; also called hGIPR; human GIP receptor
# T1 sequence (looked up): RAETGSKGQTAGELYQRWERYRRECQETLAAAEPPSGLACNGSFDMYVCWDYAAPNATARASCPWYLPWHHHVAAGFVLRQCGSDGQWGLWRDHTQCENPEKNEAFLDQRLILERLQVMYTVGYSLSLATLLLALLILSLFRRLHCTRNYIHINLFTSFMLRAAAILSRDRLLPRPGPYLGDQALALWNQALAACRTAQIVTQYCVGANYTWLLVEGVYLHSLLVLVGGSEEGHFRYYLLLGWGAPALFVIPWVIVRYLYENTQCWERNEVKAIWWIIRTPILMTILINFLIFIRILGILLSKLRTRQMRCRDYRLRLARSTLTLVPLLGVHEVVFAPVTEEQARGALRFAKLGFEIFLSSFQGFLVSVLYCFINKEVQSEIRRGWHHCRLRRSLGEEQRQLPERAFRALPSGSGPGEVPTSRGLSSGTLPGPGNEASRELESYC
# B1: Example 86 (peptide)
# peptide: Y[Aib]EGTFISDYSI[αMeL]LDEK([AEEA-AEEA-γGlu-C20 diacid])HQ[Aib]DFVE[4Pal]LLAGGPSSGAPPPS-NH2
# modifications: N-terminus assumed
# SMILES: CC[C@H](C)[C@H](NC(=O)[C@H](Cc1ccccc1)NC(=O)[C@@H](NC(=O)CNC(=O)[C@H](CCC(=O)O)NC(=O)C(C)(C)NC(=O)[C@@H](N)Cc1ccc(O)cc1)[C@@H](C)O)C(=O)N[C@@H](CO)C(=O)N[C@@H](CC(=O)O)C(=O)N[C@@H](Cc1ccc(O)cc1)C(=O)N[C@@H](CO)C(=O)N[C@H](C(=O)N[C@@](C)(CC(C)C)C(=O)N[C@@H](CC(C)C)C(=O)N[C@@H](CC(=O)O)C(=O)N[C@@H](CCC(=O)O)C(=O)N[C@@H](CCCCNC(=O)COCCOCCNC(=O)COCCOCCNC(=O)CC[C@H](NC(=O)CCCCCCCCCCCCCCCCCCC(=O)O)C(=O)O)C(=O)N[C@@H](Cc1c[nH]cn1)C(=O)N[C@@H](CCC(N)=O)C(=O)NC(C)(C)C(=O)N[C@@H](CC(=O)O)C(=O)N[C@@H](Cc1ccccc1)C(=O)N[C@H](C(=O)N[C@@H](CCC(=O)O)C(=O)N[C@@H](Cc1ccncc1)C(=O)N[C@@H](CC(C)C)C(=O)N[C@@H](CC(C)C)C(=O)N[C@@H](C)C(=O)NCC(=O)NCC(=O)N1CCC[C@H]1C(=O)N[C@@H](CO)C(=O)N[C@@H](CO)C(=O)NCC(=O)N[C@@H](C)C(=O)N1CCC[C@H]1C(=O)N1CCC[C@H]1C(=O)N1CCC[C@H]1C(=O)N[C@@H](CO)C(N)=O)C(C)C)[C@@H](C)CC
# B2: Example 90 (peptide)
# peptide: Y[Aib]EGTFISDYSI[αMeL]LDKK([AEEA-AEEA-γGlu-C20 diacid])HQ[Aib]DFVE[αMeY]LLEAGPSSGAPPPS-NH2
# modifications: N-terminus assumed
# SMILES: CC[C@H](C)[C@H](NC(=O)[C@H](Cc1ccccc1)NC(=O)[C@@H](NC(=O)CNC(=O)[C@H](CCC(=O)O)NC(=O)C(C)(C)NC(=O)[C@@H](N)Cc1ccc(O)cc1)[C@@H](C)O)C(=O)N[C@@H](CO)C(=O)N[C@@H](CC(=O)O)C(=O)N[C@@H](Cc1ccc(O)cc1)C(=O)N[C@@H](CO)C(=O)N[C@H](C(=O)N[C@@](C)(CC(C)C)C(=O)N[C@@H](CC(C)C)C(=O)N[C@@H](CC(=O)O)C(=O)N[C@@H](CCCCN)C(=O)N[C@@H](CCCCNC(=O)COCCOCCNC(=O)COCCOCCNC(=O)CC[C@H](NC(=O)CCCCCCCCCCCCCCCCCCC(=O)O)C(=O)O)C(=O)N[C@@H](Cc1c[nH]cn1)C(=O)N[C@@H](CCC(N)=O)C(=O)NC(C)(C)C(=O)N[C@@H](CC(=O)O)C(=O)N[C@@H](Cc1ccccc1)C(=O)N[C@H](C(=O)N[C@@H](CCC(=O)O)C(=O)N[C@@](C)(Cc1ccc(O)cc1)C(=O)N[C@@H](CC(C)C)C(=O)N[C@@H](CC(C)C)C(=O)N[C@@H](CCC(=O)O)C(=O)N[C@@H](C)C(=O)NCC(=O)N1CCC[C@H]1C(=O)N[C@@H](CO)C(=O)N[C@@H](CO)C(=O)NCC(=O)N[C@@H](C)C(=O)N1CCC[C@H]1C(=O)N1CCC[C@H]1C(=O)N1CCC[C@H]1C(=O)N[C@@H](CO)C(N)=O)C(C)C)[C@@H](C)CC
# B3: Example 89 (peptide)
# peptide: Y[Aib]EGTLISDYSI[αMeL]LDKK([AEEA-AEEA-γGlu-C20 diacid])HQ[Aib]DFVE[4Pal]LLEAGPSSGAPPPS-NH2
# modifications: N-terminus assumed
# SMILES: CC[C@H](C)[C@H](NC(=O)[C@H](CC(C)C)NC(=O)[C@@H](NC(=O)CNC(=O)[C@H](CCC(=O)O)NC(=O)C(C)(C)NC(=O)[C@@H](N)Cc1ccc(O)cc1)[C@@H](C)O)C(=O)N[C@@H](CO)C(=O)N[C@@H](CC(=O)O)C(=O)N[C@@H](Cc1ccc(O)cc1)C(=O)N[C@@H](CO)C(=O)N[C@H](C(=O)N[C@@](C)(CC(C)C)C(=O)N[C@@H](CC(C)C)C(=O)N[C@@H](CC(=O)O)C(=O)N[C@@H](CCCCN)C(=O)N[C@@H](CCCCNC(=O)COCCOCCNC(=O)COCCOCCNC(=O)CC[C@H](NC(=O)CCCCCCCCCCCCCCCCCCC(=O)O)C(=O)O)C(=O)N[C@@H](Cc1c[nH]cn1)C(=O)N[C@@H](CCC(N)=O)C(=O)NC(C)(C)C(=O)N[C@@H](CC(=O)O)C(=O)N[C@@H](Cc1ccccc1)C(=O)N[C@H](C(=O)N[C@@H](CCC(=O)O)C(=O)N[C@@H](Cc1ccncc1)C(=O)N[C@@H](CC(C)C)C(=O)N[C@@H](CC(C)C)C(=O)N[C@@H](CCC(=O)O)C(=O)N[C@@H](C)C(=O)NCC(=O)N1CCC[C@H]1C(=O)N[C@@H](CO)C(=O)N[C@@H](CO)C(=O)NCC(=O)N[C@@H](C)C(=O)N1CCC[C@H]1C(=O)N1CCC[C@H]1C(=O)N1CCC[C@H]1C(=O)N[C@@H](CO)C(N)=O)C(C)C)[C@@H](C)CC
# B4: Example 91 (peptide)
# peptide: Y[Aib]EGTFISDYSI[αMeL]LDKK([AEEA-AEEA-γGlu-C20 diacid])HQ[Aib]DFVE[αMeY]LLEGGPSSGAPPPS-NH2
# modifications: N-terminus assumed
# SMILES: CC[C@H](C)[C@H](NC(=O)[C@H](Cc1ccccc1)NC(=O)[C@@H](NC(=O)CNC(=O)[C@H](CCC(=O)O)NC(=O)C(C)(C)NC(=O)[C@@H](N)Cc1ccc(O)cc1)[C@@H](C)O)C(=O)N[C@@H](CO)C(=O)N[C@@H](CC(=O)O)C(=O)N[C@@H](Cc1ccc(O)cc1)C(=O)N[C@@H](CO)C(=O)N[C@H](C(=O)N[C@@](C)(CC(C)C)C(=O)N[C@@H](CC(C)C)C(=O)N[C@@H](CC(=O)O)C(=O)N[C@@H](CCCCN)C(=O)N[C@@H](CCCCNC(=O)COCCOCCNC(=O)COCCOCCNC(=O)CC[C@H](NC(=O)CCCCCCCCCCCCCCCCCCC(=O)O)C(=O)O)C(=O)N[C@@H](Cc1c[nH]cn1)C(=O)N[C@@H](CCC(N)=O)C(=O)NC(C)(C)C(=O)N[C@@H](CC(=O)O)C(=O)N[C@@H](Cc1ccccc1)C(=O)N[C@H](C(=O)N[C@@H](CCC(=O)O)C(=O)N[C@@](C)(Cc1ccc(O)cc1)C(=O)N[C@@H](CC(C)C)C(=O)N[C@@H](CC(C)C)C(=O)N[C@@H](CCC(=O)O)C(=O)NCC(=O)NCC(=O)N1CCC[C@H]1C(=O)N[C@@H](CO)C(=O)N[C@@H](CO)C(=O)NCC(=O)N[C@@H](C)C(=O)N1CCC[C@H]1C(=O)N1CCC[C@H]1C(=O)N1CCC[C@H]1C(=O)N[C@@H](CO)C(N)=O)C(C)C)[C@@H](C)CC
# B5: Example 8 (peptide)
# peptide: Y[Aib]EGTFISDYSILLDKK([AEEA-AEEA-γGlu-C20 diacid])AQ[Aib]DFVNWLLAQGPSSGAPPPS-NH2
# modifications: N-terminus assumed
# SMILES: CC[C@H](C)[C@H](NC(=O)[C@H](CO)NC(=O)[C@H](Cc1ccc(O)cc1)NC(=O)[C@H](CC(=O)O)NC(=O)[C@H](CO)NC(=O)[C@@H](NC(=O)[C@H](Cc1ccccc1)NC(=O)[C@@H](NC(=O)CNC(=O)[C@H](CCC(=O)O)NC(=O)C(C)(C)NC(=O)[C@@H](N)Cc1ccc(O)cc1)[C@@H](C)O)[C@@H](C)CC)C(=O)N[C@@H](CC(C)C)C(=O)N[C@@H](CC(C)C)C(=O)N[C@@H](CC(=O)O)C(=O)N[C@@H](CCCCN)C(=O)N[C@@H](CCCCNC(=O)COCCOCCNC(=O)COCCOCCNC(=O)CC[C@H](NC(=O)CCCCCCCCCCCCCCCCCCC(=O)O)C(=O)O)C(=O)N[C@@H](C)C(=O)N[C@@H](CCC(N)=O)C(=O)NC(C)(C)C(=O)N[C@@H](CC(=O)O)C(=O)N[C@@H](Cc1ccccc1)C(=O)N[C@H](C(=O)N[C@@H](CC(N)=O)C(=O)N[C@@H](Cc1c[nH]c2ccccc12)C(=O)N[C@@H](CC(C)C)C(=O)N[C@@H](CC(C)C)C(=O)N[C@@H](C)C(=O)N[C@@H](CCC(N)=O)C(=O)NCC(=O)N1CCC[C@H]1C(=O)N[C@@H](CO)C(=O)N[C@@H](CO)C(=O)NCC(=O)N[C@@H](C)C(=O)N1CCC[C@H]1C(=O)N1CCC[C@H]1C(=O)N1CCC[C@H]1C(=O)N[C@@H](CO)C(N)=O)C(C)C
# Biological target: T1, human glucose-dependent insulinotropic …
# Test: SPA, displacement of [125I]-GIP from hGIPR membranes, 0.1% bacitracin
row,Binder,Ki [nM]
1,B1,0.0533
2,B2,0.129
3,B3,0.072
4,B4,0.122
5,B5,0.027

# Biological target: T2, human GLP-1 receptor (human, UniProt P43220 24-463)
# T2 construct: whole, on cells; Assayed as crude membranes of stably transfected HEK293 cells; also called hGLP1R; hGLP-1R
# Test: SPA, displacement of [125I]-GLP-1 from hGLP-1R membranes, 0.1% bacitracin
# Procedure, shortened: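 Binding buffer: 25 mM HEPES pH 7.4, 2.5 mM CaCl₂, 1 mM MgCl₂, 0.1% bacitracin, 0.003% Tween-20, protease inhibitors without EDTA. Four-parameter nonlinear regression; Kᵢ given as geometric mean ± SEM, n = independent replicates run on different days.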
row,Binder,Ki [nM]
1,B1,108
2,B2,102
3,B3,294
4,B4,37.4
5,B5,38.1

# Biological target: T3, human glucagon receptor (human, UniProt P47871 26-477)
# T3 construct: whole, on cells; Assayed as crude membranes of stably transfected HEK293 cells; also called hGcgR; GcgR
# T3 sequence (P47871 26-477): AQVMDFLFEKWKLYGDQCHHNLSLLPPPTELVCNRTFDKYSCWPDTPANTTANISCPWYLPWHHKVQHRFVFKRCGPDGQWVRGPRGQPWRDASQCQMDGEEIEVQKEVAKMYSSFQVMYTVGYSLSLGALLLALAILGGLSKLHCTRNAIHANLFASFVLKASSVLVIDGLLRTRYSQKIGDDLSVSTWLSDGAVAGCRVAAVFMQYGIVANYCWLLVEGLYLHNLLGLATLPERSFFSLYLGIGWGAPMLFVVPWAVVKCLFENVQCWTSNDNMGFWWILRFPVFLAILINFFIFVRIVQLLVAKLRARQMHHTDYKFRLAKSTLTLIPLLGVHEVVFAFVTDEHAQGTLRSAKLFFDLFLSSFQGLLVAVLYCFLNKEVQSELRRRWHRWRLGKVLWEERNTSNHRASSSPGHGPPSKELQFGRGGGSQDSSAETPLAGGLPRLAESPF
# Test: SPA, displacement of [125I]-Gcg from hGcgR membranes, 0.1% bacitracin
# Procedure, shortened: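 Binding buffer: 25 mM HEPES pH 7.4, 2.5 mM CaCl₂, 1 mM MgCl₂, 0.003% Tween-20, protease inhibitors without EDTA. Counted by scintillation after 12 h incubation/settling at room temperature. Four-parameter nonlinear fit; Kᵢ given as geometric mean ± SEM of independent replicates run on different days.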
row,Binder,Ki [nM]
1,B1,462
2,B2,112
3,B3,611
4,B4,54.4
5,B5,101
